Experimental data as given in doi:10.1101/2025.09.11.675134, “Biodistribution-Driven Discovery Identifies a Glycosidase-Cleavable Linker to Reprogram Radiotheranostics” (bioRxiv, 2025).
Read-outs that look alike come from different tables or passages of the source.

Tests used:
[1] = Ex vivo biodistribution of 86Y-labeled variants in AR42J tumor-bearing mice; conditions: athymic nude, mouse, iv, 1 ug, total radioactivity, mean; for tissue uptake at 1 h: 1 h post-injection; for tissue uptake at 4 h: 4 h post-injection; for tissue uptake at 24 h: 24 h post-injection
Procedure: To independently confirm these observations, ex vivo biodistribution studies were conducted using the same ^86Y-labeled compounds at matched timepoints (Fig. S16; Table S3). […]
For studies involving three variants (DOTA -TATE, DOTA-MVK(ε)-TATE, and DOTA-β-Gal-TATE), AR42J cells (5 × 10^6 cells per mouse) were subcutaneously inoculated into the right shoulder of the mice. Tumors were allowed to grow for 3 weeks, reaching a volume of 100 –200 mm³ before being used in subsequent experiments. For biodistribution or PET imaging studies, mice bearing subcutaneous AR42J tumors were administered 1.4 – 1.8 MBq (1 μg) of 111In-labeled DOTA-TATE variants or 2.7 – 4.9 MBq (1 μg) of 86Y-labeled DOTA-TATE variants via tail vein injection. Biodistribution studies with 111In-labeled DOTA -TATE variants were performed 1 hour post -injection (n = 3 per cohort), while studies with 86Y-labeled DOTA-TATE variants were conducted at 1, 4, and 24 hours post -injection (n = 3 per cohort). Mice were euthanized by CO2 asphyxiation, and 10 tissues, including tumors, were collected. All samples were weighed and counted on a gamma counter (2480 Wizard 3, Perkin Elmer Inc., Waltham, MA, USA). Results are presented as percentage of injected activity per gram (%IA/g) and mean values ± standard deviations. […]

[2] = PET/CT quantification of 86Y-labeled variants in AR42J xenograft mice; assay type: in vivo; conditions: athymic nude, mouse, in vivo, iv, total radioactivity
Procedure: For studies involving three variants (DOTA -TATE, DOTA-MVK(ε)-TATE, and DOTA-β-Gal-TATE), AR42J cells (5 × 10^6 cells per mouse) were subcutaneously inoculated into the right shoulder of the mice. Tumors were allowed to grow for 3 weeks, reaching a volume of 100 –200 mm³ before being used in subsequent experiments. For biodistribution or PET imaging studies, mice bearing subcutaneous AR42J tumors were administered 1.4 – 1.8 MBq (1 μg) of 111In-labeled DOTA-TATE variants or 2.7 – 4.9 MBq (1 μg) of 86Y-labeled DOTA-TATE variants via […]
tail vein injection. […]
PET imaging to assess the uptake of three 86Y-labeled DOTA-TATE variants (2.7 – 4.9 MBq, 1 μg) in the kidney and tumor was performed at 1, 4, and 24 hours post-injection (n = 3 per cohort) in mice bearing AR42J tumors using the MRS*PET/CT 120 scanner (MR Solutions, Guildford, UK). PET/CT data acquisition was managed using Preclinical Scan software (version 4.2.4.0, MR Solutions). Mice were anesthetized with 2% isoflurane, and static PET sc ans were acquired over 10 min. CT scans were obtained for attenuation correction and anatomical co-registration.
PET data were reconstructed using three-dimensional ordered-subsets expectation maximization, and were subsequently normalized, decay - and dead-time–corrected prior to analysis. PET/CT images were analyzed using MIM software (version 7.2.7, MIM Software Inc., Beachwood, OH, USA), and the quantitative evaluation of the maximum standardized uptake (SUVmax) and the average standardized uptake values (SUVmean) in the kidney and tumor were also performed. […]

[3] = blood, ex vivo, n = 3, read-out: Blood uptake
[4] = femur, ex vivo, n = 3, read-out: Femur uptake
[5] = heart, ex vivo, n = 3, read-out: Heart uptake
[6] = intestine, ex vivo, n = 3, read-out: Intestine uptake
[7] = ex vivo, n = 3, read-out: Tumor uptake
[8] = kidney, ex vivo, n = 3, read-out: Kidney uptake
[9] = liver, ex vivo, n = 3, read-out: Liver uptake
[10] = lung, ex vivo, n = 3, read-out: Lung uptake
[11] = muscle, ex vivo, n = 3, read-out: Muscle uptake
[12] = spleen, ex vivo, n = 3, read-out: Spleen uptake

CSCC[C@H](NC(=O)CN1CCN(CC(=O)O)CCN(CC(=O)O)CCN(CC(=O)O)CC1)C(=O)N[C@H](C(=O)N[C@@H](CCCCNC(=O)CCCC(=O)N[C@H](Cc1ccccc1)C(=O)N[C@H]1CSSC[C@@H](C(=O)N[C@H](C(=O)O)[C@@H](C)O)NC(=O)[C@H]([C@@H](C)O)NC(=O)[C@H](CCCCN)NC(=O)[C@@H](Cc2c[nH]c3ccccc23)NC(=O)[C@H](Cc2ccc(O)cc2)NC1=O)C(=O)O)C(C)C [^86Y-DOTA-MVK(ε)-TATE, metal not drawn]
tissue uptake at 1 h ([1]; blood, i.v. 1 μg (2.7–4.9 MBq), ex vivo gamma counting, n = 3, read-out: Blood uptake): 0.32 %ID/g | tissue uptake at 4 h [1, 3]: 0.17 %ID/g | tissue uptake at 24 h [1, 3]: 0.02 %ID/g | tissue uptake at 1 h [1, 4]: 0.52 %ID/g | tissue uptake at 4 h [1, 4]: 0.21 %ID/g | tissue uptake at 24 h [1, 4]: 0.2 %ID/g | tissue uptake at 1 h [1, 5]: 0.35 %ID/g | tissue uptake at 4 h [1, 5]: 0.24 %ID/g | tissue uptake at 24 h [1, 5]: 0.08 %ID/g | tissue uptake at 1 h [1, 6]: 0.69 %ID/g | tissue uptake at 4 h [1, 6]: 0.46 %ID/g | tissue uptake at 24 h [1, 6]: 0.05 %ID/g | tissue uptake at 1 h [1, 7]: 5.02 %ID/g | tissue uptake at 4 h [1, 7]: 5.08 %ID/g | tissue uptake at 24 h [1, 7]: 4.53 %ID/g | tissue uptake at 1 h [1, 8]: 4.12 %ID/g | tissue uptake at 4 h [1, 8]: 3.78 %ID/g | tissue uptake at 24 h [1, 8]: 1.66 %ID/g | tissue uptake at 1 h [1, 9]: 0.17 %ID/g | tissue uptake at 4 h [1, 9]: 0.15 %ID/g | tissue uptake at 24 h [1, 9]: 0.06 %ID/g | tissue uptake at 1 h [1, 10]: 0.79 %ID/g | tissue uptake at 4 h [1, 10]: 0.47 %ID/g | tissue uptake at 24 h [1, 10]: 0.13 %ID/g | tissue uptake at 1 h [1, 11]: 0.45 %ID/g | tissue uptake at 4 h [1, 11]: 0.23 %ID/g | tissue uptake at 24 h [1, 11]: 0.09 %ID/g | tissue uptake at 1 h [1, 12]: 0.25 %ID/g | tissue uptake at 4 h [1, 12]: 0.22 %ID/g | tissue uptake at 24 h [1, 12]: 0.14 %ID/g | SUV at 4 h ([2]; Kidney SUVmax): 0.42 ± 0.07 SUV | SUV at 24 h ([2]; Kidney SUVmax): 0.21 ± 0.01 SUV | SUV at 1 h ([2]; Tumor SUVmax): 1.31 ± 0.06 SUV | SUV at 4 h ([2]; Tumor SUVmax): 1.06 ± 0.14 SUV | SUV at 24 h ([2]; Tumor SUVmax): 1.04 ± 0.13 SUV
